Measurements from US20030119735.

Experiments:
[1] = tested on: T1, 4-[Succinimidopropionoyl-(H-Cys-βAla-Arg-Arg-Met-Lys-Trp-Lys-Lys-NH2)]podophyllotoxin
T1 sequence: CRRMKWKK

[2] = tested on: T2, 4-[Succinimidopropionoyl-(H-Cys-βAla-Arg-Arg-Met-Lys-Trp-Lys-Lys-NH2)]epipodophyllotoxin
T2 sequence: CRRMKWKK

[3] = tested on: T3, H-βAla-Arg-Arg-Met-Lys-Trp-Lys-Lys-NH2
T3 sequence: RRMKWKK

[4] = tested on: T4, 4′-Demethyl-4-[acetyl-(H-Cys-βAla-Arg-Arg-Met-Lys-Trp-Lys-Lys-NH2)]epipodophyllotoxin
T4 sequence: CRRMKWKK

[5] = tested on: T5, 4′-Demethyl-4-[4″-aminoanilino-(succinimidopropionoyl)-(H-Cys-bAla-Arg-Arg-Met-Lys-Trp-Lys-Lys-NH2)]-epipodophyllotoxin
T5 sequence: CRRMKWKK

Substance: purified recombinant human topoisomerase II
- Activity observed (topoisomerase II cleavage and relaxation assays on plasmid DNA) [1]: -
- Activity observed (topoisomerase II cleavage and relaxation assays on plasmid DNA) [2]: IC
- Activity observed (topoisomerase II cleavage and relaxation assays on plasmid DNA) [3]: -
- Activity observed (topoisomerase II cleavage and relaxation assays on plasmid DNA) [4]: IC
- Activity observed (topoisomerase II cleavage and relaxation assays on plasmid DNA) [5]: I
